For one substance, EC50 (read off the curve) results are on record in US20040213795A1.

This assay deals with Human PD-1 fusion protein (human) (UniProt Q15116). The assay is described as follows: ELISA on coated human PD-1/IgG chimera (2.5 ug/ml), HRP anti-murine antibody.
Sequence of Human PD-1 fusion protein (human) (Q15116 other isoform, or with tags, fused parts or gaps): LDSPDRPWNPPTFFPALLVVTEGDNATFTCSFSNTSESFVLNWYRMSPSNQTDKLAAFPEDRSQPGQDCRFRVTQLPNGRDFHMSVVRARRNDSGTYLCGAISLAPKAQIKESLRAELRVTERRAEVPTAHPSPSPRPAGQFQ

As to Murine anti-human PD-1 antibody J110, the EC50 (read off the curve) worked out at 1 µg/mL.
